Reference: US20160152995A1, “METHODS AND COMPOSITIONS TO IMPROVE THE SPREAD OF CHEMICAL SIGNALS IN PLANTS” (PIONEER HI-BRED INTERNATIONAL, INC., priority 2013, published 2016)

Assays:
[1] = system: E. coli assay strain Km3; experiment: Liquid B-galactosidase assays of chlorsulfuron repressor hits (induction and repression); conditions: for F. IND = fold induction (IND/REP) (B-galactosidase) / IND = induction with 20 ppb CS (B-galactosidase) / REP = repression in absence of inducer (B-galactosidase): CsL4.2 hits
Method: In order to create new diversity for shuffling the top clone from CsL3 was subjected to error prone PCR mutagenesis using Mutazyme (Stratagene). The mutated PCR product encoding the CsR ligand binding domain was inserted into library expression vector pVER7334 as a Sac1 to Asc1 fragment, transformed into library strain Km3 and plated onto LB+40 ug/ml Kanamycin and 50 ug/ml Carbenecillin. Approximately 10,000 colonies were then replica plated onto M9 Xgal assay medium +/−20 ppb Cs. Putative hits were then re-arrayed and replica plated onto the same assay medium. Performance was gauged by the level of blue colony color after 24 hrs incubation on inducer (induction) and 72 hrs incubation without inducer (repression). The top hits were then subjected to liquid B-galactosidase assays for quantitative assessment (Table 21).
Seventh round library CsL4.2 was designed based on the best diversity from CsL3 and CsL3-MTZ library screens (Table 14). The library was assembled with oligonucleotides shown below in Table 22. The first and last primers were used as rescue primers. CsL4.2 included a C-terminal 6×His-tag extension to facilitate protein purification. The library was assembled and cloned into vector pVER7334 Sac1 to Asc1, transformed into library assay strain Km3 and plated onto LB+40 ug/m1 Kanamycin and 50 ug/ml carbenecillin. Approximately 8,000 colonies were re-arrayed into 384-well format and replica plated onto M9 Xgal assay medium +/−2 ppb Cs. Putative hits were re-arrayed in 96-well format onto the same media for re-testing. Confirmed hits were then tested for induction and repression aspects in liquid culture using B-galactosidase assays.
Mutagenesis reactions were transformed into E. coli assay strain Km3 and plated onto LB+50 ug/ml Carbenecillin. Colonies were then re-arrayed into 384 well format and replica plated onto M9 Xgal assay medium +/−5 ppb Chlorsulfuron. Putative hits were then re-arrayed and analyzed by B-galactosidase assays relative to the parent clones (FIG. 10).

[2] = system: E. coli assay strain Km3; format: cell-based
Method: Library L6 was assembled, rescued, ligated into pVER7314, transformed into E. coli KM3 and plated out onto LB carbenicillin/kanamycin, and carbenicillin only control media as before. Library plates were then picked into 42 384-well microtiter plates (˜16,000 clones) containing 60 μl LB carbenicillin (Cb) broth per well. After overnight growth at 37° C. the cultures were stamped onto M9 assay plates containing no inducer, 0.2 ppm, and 2.0 ppm chlorsulfuron as test inducer. Following incubation at 30° C. for ˜48 hrs, putative hits responding to chlorsulfuron treatment as determined by increased blue colony color were re-arrayed into six 96-well microtiter plates and used to stamp a fresh set of M9 assay plates to confirm the above results. For a more detailed analysis of the relative induction by chlorsulfuron, digital photographs were taken of the plates after various time points of incubation at 30° C. and colony color intensity measured using the digital image analysis freeware program ImageJ (Rasband, US National Institutes of Health, Bethesda, Md., USA, rsb.info.nih.gov/ij/, 1997-2007). […] From this analysis sequence-activity relationships were derived. […] Briefly, C at position 100, and Q at positions 108 and 109 strongly correlated with activation, while R at position 138, L at position 170, and A or G at position 173 were highly preferred in clones with the lowest background activity. […] This information will aid in the design of further libraries to improve responsiveness to chlorsulfuron.
Library L8 construction and screening. Fourth round shuffling incorporated the best diversity from Rd3 shuffling (BB1860) as well as computational diversity (Table 14). As diversity was very high the library oligo mix was spiked into the parental hit variant oligo mix (5, 10, and 25% mixes) to titer down the number of residue changes per clone. In addition, to varying residues for Cs activity, seven residues (C68, C86, C88, C121, C144, C195, and C203) were varied with TetR family phylogenetic substitutions in an attempt to reduce the number of cysteine residues in the repressor. The PCR assembled libraries were cloned Sac1/Asc1 into pVER7334. This plasmid encodes PBAD promoter controlled expression of a plant optimized TetR DNA binding domain fused to the wt ligand binding domain of TetR(B) encoded by native Tn10 sequence on a Sac1 to Asc1 fragment. Approximately 15,000 clones were screened for blue colony color on the M9 Xgal assay plates +/−200 ppb Chlorsulfuron (Cs). Clones were ranked by ratio of color with inducer after 24 hrs incubation over colony color without inducer for 48 hrs of incubation. The sequence trend in the overall larger population of hits (first re-array) was that L55, R104, W105 and L170 were maintained while the C144A substitution was highly preferred. Sequence trends within the hit population were then noted with respect to repression, induction and fold induction (which corrects for leakiness).
Mutagenesis reactions were transformed into library strain Km3 and 96 colonies tested for substitution by DNA sequence analysis. Substitutions representing each possible residue at each position were then re-arrayed in triplicate onto M9 X-gal assay plates with 0, 20 and 200 ppb Chlorsulfuron. Plates were incubated at 37° C. for 24 and 48 hrs prior to imaging. Residue substitutions were then ranked by activation (emphasis on 20 ppb Cs) and repression characteristics (emphasis on 48 hr time point). The mutation with the greatest impact on activity was substitution of residue N82 to phenylalanine or tyrosine. […] All other preferred substitutions shown in Table 18 either improved repression or improved sensitivity to inducer without compromising repressor function. Certain residues were indispensible to function such as R104, W105, and W174 as substitutions were not allowed. Other residue positions such as R138 and K177 were also flagged as critical since functional substitutions were extremely limited. […]

[3] = system: β-gal background activity; experiment: First and second round library screen (L1, L2) for induction by sulfonylurea ligands, β-gal colony assay; format: cell-based, E. coli
From the text: The original library was designed to thifensulfuron, but once induction activity was established with other SU compounds having potentially better soil and in planta stability properties than the original ligand, the evolution process was re-directed towards these alternative ligands. Of particular interest were herbicides metsulfuron, sulfometuron, ethametsulfuron and chlorsulfuron. For this objective, parental clones L1-9, -22, -29 and -44 were chosen for further shuffling. Clone L1-9 has strong activity on both ethametsulfuron and chlorsulfuron; clone L1-22 has strong sulfometuron activity; clone L1-29 has moderate metsulfuron activity; and clone L1-44 has moderate activity on metsulfuron, ethametsulfuron and chlorsulfuron. (Data not shown.). No clones found in the initial screen were exceptionally reactive to metsulfuron. These four clones were also chosen due to their relatively strong repressor activity, showing low β-gal background activity without inducer. Strong repressor activity is important for establishing a system which is both highly sensitive to the presence of inducer, and tightly off in the absence of inducer.
Based on the sequence information from parental clones L1-9, -22, -29 and -44, two second round libraries were designed, constructed and screened. The first library, L2, consisted of a ‘family’ shuffle whereby the amino acid diversity between the selected parental clones was varied using synthetic assembly of oligonucleotides to find clones improved in responsiveness to any of the four new target ligands.
The L2 oligonucleotides were assembled, cloned and screened as per the protocol described for library L1 except that each ligand was tested at 2 ppm to increase the stringency of the assay, which is a 10-fold reduction from 1st round library screening concentration.

[4] = liquid B-galactosidase assay, 20 ppb Cs
[5] = liquid B-galactosidase assay, no inducer

| Molecule | F. IND = fold induction (IND/REP) (B-galactosidase) ([1]; 20 ppb Cs vs no inducer) | IND = induction with 20 ppb CS (B-galactosidase) [1, 4] | REP = repression in absence of inducer (B-galactosidase) [1, 5] | further results |
| --- | --- | --- | --- | --- |
| L8-3F01: library L8 chlorsulfuron repressor hit, parent for saturation mutagenesis (protein, Sulfonylurea responsive repressor, library L8 chlorsulfuron repressor hit, parent for saturation mutagenesis) MARLDKSKVINSALELLNEVGIEGLTTRKLAQKLGVEQPTLYWHVKNKRALLDALAIEMMDRHQTHYLPLEGESWQDFLRNNAKSCRRALLSHRDGAKVCLGTRWTEQQYETAENMLAFLTQQGFSLENALYAVSAVRVFTLGAVLFDQESQVAKEERETPTTDSMPPLLRQAWELKDHQGAEPAFLFGLELIIAGLEKQLKRESGS | 2.0 | 0.9 | 0.4 | F. IND = fold induction (IND/REP) (B-galactosidase assay) ([1]; CsL3-MTZ hits, 20 ppb Cs vs no inducer): 1; IND = induction with 20 ppb CS (B-galactosidase assay) ([1]; CsL3-MTZ hits, liquid B-galactosidase assay, 20 ppb Cs): 8; REP = repression in absence of inducer (B-galactosidase assay) ([1]; CsL3-MTZ hits, liquid B-galactosidase assay, no inducer): 7; F. IND = fold induction (IND/REP) (Colony Assay Results) ([2]; CsL3 hits, 20 ppb Cs vs no inducer): 2.5; REP = repression in absence of inducer (Colony Assay Results) ([2]; CsL3 hits, M9 Xgal colony color, 0 ppb Cs): 0.7; IND = induction with 20 ppb CS (Colony Assay Results) ([2]; CsL3 hits, M9 Xgal colony color, 20 ppb Cs): 1.6; IND = induction with 200 ppb Cs at 24 hrs (blue colony color intensity thru ImageJ analysis) ([2]; library L8 hits, M9 Xgal colony assay, 200 ppb Chlorsulfuron, 24 hrs): 1.7; F. IND = fold induction: induction with 200 ppb Cs at 24 hrs/repression at 48 hrs ([2]; library L8 hits, M9 Xgal colony assay, ratio IND (200 ppb Cs, 24 hrs) / REP (48 hrs)): 3.0; REP = repression measured without inducer after 48 hrs (blue colony color intensity thru ImageJ analysis) ([2]; library L8 hits, M9 Xgal colony assay, without inducer, 48 hrs): 0.6 |
| CsL4.2-27 (protein, Sulfonylurea responsive repressor) MARLDKSKVINSALELLNEVGIEGLTTRKLAQKLGVEQPTLYWHVKNKRALLDALAIEMMDRHQTHYLPLEGESWQDFLRNFAKSMRCALLSHRDGAKVSLGTRWTEQQYETAENMLAFLTQQGFSLENALYATDAVRVFTLGAVLLDQEQQVAKEERETPTPDRMPPLLQQAWELKEHQGAEPAFLFGLELIIAGLEKQLKRDSGSHHHHHH | 9.1 | 3.2 | 0.4 | – |
| CsL4.2-20: Chlorsulfuron (Cs) repressor, top hit of library CsL4.2 (protein, Sulfonylurea responsive repressor) MARLDKSKVINSALELLNEVGIEGLTTRKLAQKLGVEQPTLYWHVKNKRALLDALAIEMHDRHQTHYLPLEGESWQDFLRNFAKSMRLALLSHRDGAKVSLGTRWTEQQYETAENMLAFLTQQGFSLENALYATDAVRVFTLGAVLLDQEQQVAKEERETPTPDSMPPLLRQAWELKVHQGAEPAFLFGLELIIAGLEKQLKRESGS | – | 7.4 | 0.2 | – |
| CsL4.2-12 (protein, Sulfonylurea responsive repressor) MARLDKSKVINSALELLNEVGIEGLTTRKLAQKLGVEQPTLYWHVKNKRALLDALAIEMHDRHGTHYLPLEGESWQDFLRNFAKSMRRALLSHRDGAKVALGTRWTEQQYETAENMLAFLTQQGFSLENALYATSAVRVFTLGAVLLDQEGQVANEERETPTTDSMPPLLRQAWELKVHQGAEPAFLFGLELIIAGLEKQLKRESGSHHHHHH | 9.5 | 6.4 | 0.7 | – |
| CsL4.2-11 (protein, not fully specified; Sulfonylurea responsive repressor; VARIANT 202: Xaa = Any Amino Acid) MARLDKSKVINSALELLNEVGIEGLTTRKLAQKLGVEQPTLYWHVKNKRALLDALAIEMHDRHGTHYLPLEGESWQDYLRNFAKSMRRALLSHRDGAKVSLGTRWTEQQYETAENMLAFLTQQGFSLENALYATSAVRVFTLGAVLLDQEQQVAKEERETPTTDSMPPLLRQAWELKEHQGAEPAFLFGLELIIAGLEKQLXRESGSHHHHHH | 8.9 | 4.8 | 0.5 | – |
| CsL4.2-18 (protein, Sulfonylurea responsive repressor) MARLDKSKVINSALELLNEVGIEGLTTRKLAQKLGVEQPTLYWHVKNKRALLDALAIEMMDRHQTHYLPLEGESWQDFLRNFAKSMRCALLSHRDGAKVALGTRWTEQQYETAENMLAFLTQQGFSLENALYATSAVRVFTLGAVLLDQEQQVAKEERETPTPDRMPPLLRQAWELKVHQGAEPAFLFGLELLIAGLEKQLKRESGSHHHHHH | 9.3 | 6.8 | 0.7 | – |
| clone L1-22: SuR polypeptide, SEQ ID NO:7 (protein, Sulfonylurea responsive repressor) MGSRLDKSKVINSALELLNEVGIEGLTTRKLAQKLGVEQPTLYWHVKNKRALLDALAIEMMDRHHTHFCPLEGESWQDFLRNTAKSYRCALLSHRDGAKVCLGTAITEKQYETKENNLAFLCQQGFSLENALYARQAVRVFTLGCVLFDQEMQVAKEERETPTTDSMPPLLRQASELLDHQGAEPAFLFGLELIICGLEKQLKSESGS | – | – | – | induction activity on sulfometuron ([3]; library L1 initial screen, data not shown): strong; Inducer preference ([3]; β-gal colony assay, L2 library screened with each ligand at 2 ppm, numbers are the patent's inducer ligand numbers, atc for wt): 3 |
